{
  "source": "patent US5922563",
  "target": "receptors on glutaraldehyde-fixed HeLa cells",
  "assay": "competition ligand assay on fixed HeLa cells; 100 µg E. coli lysate (F11.2 cDNA); competitor: ^35 S-labeled trichomonad AP65; densitometry of fluorograms",
  "data": [
    {"substance": "recombinant AP65-1 adhesin expressed in E. coli from cDNA clone F11.2 (ligand)", "values": [
      {"measurement": "percent decrease of parasite AP65 binding", "value": 55, "unit": "%"}
    ]}
  ]
}
